# Experimental data as given in the nanobody polyreactivity screen of Harvey et al. (2022).
# Assay: yeast display, Sf9 membrane polyspecificity reagent, FACS + sequencing; frameworks hold sequencing errors
# Method in brief: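 Galactose induction of a Saccharomyces cerevisiae BJ5465 synthetic nanobody display library ran 36–48 hours. The cells were then stained for 1 hour at 4 °C with 10% biotinylated, detergent-solubilized Sf9 membrane reagent, pulled down on streptavidin microbeads and FACS-sorted into low and high (top ~1%) gates on expression and reagent-binding fluorescence. Labels for polyreactivity follow the gate of origin.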
row,Sequence,polyreactivity (PSR sort gate)
1,QVQLVESGGGLVQAGGSLRLSCAASGFIFYSYAMGWYRQAPGKEREFVAAISRAGSTNYADSVKGRFTISRDNAKNTVYLQMNSLIPEDTAVYYCNKGYHSWSRLSQFGWSYDYWGQGTQVTVSS,high polyreactivity
2,QVQLVESGGGLVQAGGSLRLSCAASGRTFPGNAMGGDKQAPGKERELVASINGRTTRTYYADSVKGRFTISRDNAKNTVYLQMTSLKPEDTAVYYCAADPPGYVYGKRYYWGQGTQVTVSS,high polyreactivity
3,QVQLVESGGGLVQAGGSLRLSCAASGRIFNYNAIGWYRQAPGKERELVAAITCSGGSTYYADSVKGRFTISRDNAQYNVYLQMNSLKPEDTAVYYCIALITYSSDYWGQGTQVTVSS,low polyreactivity
4,QVQLVESGGGLVQAGGSLRLSCAASGRTSYYYAMGWSRQAPGKERELVAAISRSGGRTYYADSVKGRFTISRDNAKNTVYLQMNSLKPEDTAVYYCAADPRSYDTGRMDYWGQGTQVTVSS,high polyreactivity
5,QVQLVESVGGLDQAGGSLRLSCAASGSTFKRYVMGWYRQAPGKERELVAAITWSGTRTYYADSVKGRFTLSRDNAKNTVYLQMNSLKPEDTAVYYCAARLYGGYDWGQGTQVTVSS,high polyreactivity
6,QVQLVESGGGLVQAGGSLRLSCAASGRIFYSNAMGWYRQAPGKERELVAANTSGGNTYYADSVKGRFTISRDNAKNTVYLLMNSLKPEDTAVYYCAADHYWRRSGFGYWGQGTQVTVSS,low polyreactivity
7,QVQLVESGGGLVQAGGSLRLSCAASGSIFRAYAMGWYRQAPGKERELVAAITNGGGTTYYADSVKGRFTISRDNAKNTVYLQMNSLKPEDTAVYYCAADGAYSYASYDYWGQGTQVTVSS,low polyreactivity
8,QVQLVESGGGLVQAGGRLRLICAASGRTFTPYAMGWYRQAPGKERELVAAITRGGSTYYADSVKGRFTISRDNAKNTVYLHMNSLKPEDTAVYYCNALVSYYKLSSEYDYWGQGTQVTVSS,high polyreactivity
9,QVQLVESGGGLVQAGGSLRLSCAASGSIFGYYAMGWYRQAPGKERELVARISYSGGTTYYADSVKGRFTISRDNAKNTVYLQMNSLKPEDTAVYYCNARIPYSWRYGYWGQGTQVTVSS,high polyreactivity
10,QVQLVESARGLVQAGGSLRLSCAASGFTFYKYAMGWYRQAPGKETELVDAISSGGRTNYADSVKGRFTISRDNAMNTVYLHMNSLNPEDTAVYFCAADRSYRSGYNYWGQGTQVTVSS,high polyreactivity
11,QVHLVESGGGLVQAGGSLRLICAASGFIFRQYAMGWYRQAPGKERELVAAISYRGASTYYADSVKGRFTISRDNAKNTVYLQMNSLKPEDTAVYYCADRYYNPWARVSGYDYWGQGTQVTVSS,high polyreactivity
12,QLQLVESGGGLVQAGGSLRLSCAASGLTFVDYAMGWYRQAPGKERELVAAITSSGGSITYYADSVKGRFTISRDNAKNTVYLQLNSLKPEDTAVYYCNADYGIYTDSFRGPDYESWGQGTQVTVSS,low polyreactivity
13,QVQLVESGGGLDQAGCSLRISCAASGRIFIQNTMGWYRQAPGKERELVAAITRSGGRTYYADSVKGRFTFSRDNAKNTVYLQMNSLKPEDTAVYYCNRRPATRAYLYDYWGQGTQVTVSS,high polyreactivity
14,QVQLVESGGGLVQAGGSLRLSCAASGLTFDWYTMGWYRQAPGKERELVATINSGGSTDYADSVKGRFTISRDNAKNTVYLQMNSLKPEDTAVYYCNAEYGYSGVGDDYWGQGTQVTVSS,low polyreactivity
15,QVQLVESGGGLVQAGGSLRLSCAASGGAFRYYTMGWYRPAPGKDRELVASISGGGRTYYADSVKGRFTISRDNAKNSVYLQMNSLKPEDTAVYYCNARNRVYYTMSGFGYLGQGTQVTVSS,high polyreactivity
16,QVELEESGGGLVQAGGSLRLSCAASGFIFRYYALGWYRPGPGTVRELVAVISSSGSTHYADSVKGRITISRDNAKNTVYLQMNSLKPEDTAVYYCAADGNVWSGPRYDYWGQGTQLTVSS,low polyreactivity
17,QVQLVESGGGLVQAGGSLRLSCAASGRIFVRNAMGWYRQAPGKERELVAAISWSSGGTYYADSVKGRFTISRDNAKNTVYLQMNSLKPEDTAVYYCNADPSRAGDYWGQGTQVTVSS,low polyreactivity
18,QVQLVESGGGLVQAAGSLRLSCAASGRTFFPYAMGWYRQAPGKEREFVAAITKTDDSTYYADSVKGRFTISRDNAKNTVYLQMNSLKPEDSAVYYCNAGDTQIRFYYWGQVTQVTVSS,low polyreactivity
19,QVQLVESGGGLVQAGGSLRLSCAASGSTFSVYAMGWYRQAPGKERELVARITGGSTYADSVKGRFTISRDNAKNTVYLQMNSLKPEDTAVYFCNAYRYWSPGYDYWGQGTQVTVSS,low polyreactivity
20,QVQLVESGGGLVQAGGSLSLSCAASGLIYYSYAMGWYRQAPGKERELVAAITGGGSTNYADSVKGRFTISPDNAKNTVYLQMNSLKPEDTAVYYCAAAFTLRKYDYWGQGTQVSVSS,low polyreactivity
21,QVQLVESGGGLVQAGGSLRLSCDASGFTFYGNAMGWYRQAPGKERELVAAISGRGGSTYYADSVKGRFTISRDNAKNTVYLQMNSLKPEDTAVYYCAIYVSWPLYYYWGQGTQVTVSS,low polyreactivity

row,Sequence,polyreactivity (PSR sort gate)
1,QVQLVESGGGLVQAGGSLRLSCAASGRTFLRYAMGWYRQAPGKERELVAAISSRGGSTYYADSVKGRFTISRDNAKNTVYLQMNSLKPEDTAVYYCAADTYYTRYYYWGQGTQVTVSS,high polyreactivity
2,QVQLVESGGGLVQAGGSLRLSCAASGRTFRYYVMGWYRQAPGKERELVAGISGSGGNTYYADSVKGRFTISRDNAKNTVYLQMNSLKPEDTAVYYCAARQRGSVGVPYNSWGQGTQVTVSW,high polyreactivity
3,QVQLHESGGGLVQAGGGLRLSCAASGSISSTGFMGWYRQAPGKESEPVAAIAPGTTTYYADSVKGRFTISRDNAKNTVYLHMKSLRPEDTAVYYCAVFTDNRVAFLYWGEGTQVTVSS,low polyreactivity
4,QVQLVESGGGLVQAGGSLRLRCAASGSIFKRYAMGWYRQAPGKERELVAAISWGGGRTYYADSVKGRFTISRDTAKNTVYLQMNSLKPEDTAVYYCNRVGSYGQSNSYQGGDYWGQGTQVTVSS,high polyreactivity
5,QVQLEESGGGLVQAGGSLRLSCAASGFILTGNVMGWYRQAPGKEREFVAGISRSGGTYYADSVKGRFTISRDNAKNTVYLQMNSLKPEDTAVYYCAAKPIYYSRGYYWGQGTQVTVSS,high polyreactivity
6,QVQLVESGGGLVQAGGSLRLSCAASGRTFARYVMGWYRQAPGKERELVASISNSGGSTYYADSVKGRFTISRDNAKNTVYLQMNSLKPEDTAVYYCARRYYSYTTYRYDYWGQGTQVTVSS,high polyreactivity
7,QVQLVESGGGLVQAGGSLRLSCAASGRTFRYNTMGWYRQAPGKERELVASISSGDRTYYADSVKGRFTISRDNAKNTVYLQMNSLKPEDTAVYYCAKDVGYWYYYWGQGTQVTVSS,high polyreactivity
8,QVQLVESGGGLVQAGGSLRLSCAASGSTFVRNAMGWYRQAPGKERELVAGISTGDKTYYADSVKGRFTISRDNAKNTVYLQMNSLKPEDTAVYYCAASVGTYQTATLDYDSWGQGTQVTVSS,low polyreactivity
9,QVQLVESGGGLVQAGGSLRFSCAASGFIFYYYDMGWYRQAPGKERELVATISRGGSTYYADSVKGRFTISRDNAKNTVYLQMNSLKPEDTAVYYCAAYRSFGYRNWNRFDYWGQGTQVTVSS,high polyreactivity
10,QVQLVESGGGLVQAGGSLRLSCAASGRTFYRNTMGWYRQAPGKERELVAGISYSGGSTYYADSVKGRFTISRDNAKNTVYLQMNSLKPEDTAVYYCATVRRYGYGYDYWGQGTQVTVSS,high polyreactivity
11,QVQLVESGVGLVQAGGSLRLSCAASGSTFKYYGMGWYRQAPGKERELVASISSSGTRTYYADSVKGRFTISSDNAKNTVYLQMNSLKPEDTAVYYCAADSYATYFLYDSWGQGTQVSVSS,low polyreactivity
12,QVQLVESAGGLVQAGGSLRLSCAASGSTFGPYAMGWYRQVPGKERELVAGISYGGGTTFYADSVKGRFTISRDNAKYTVYLQMNSLKPEDTAVYYCAATYRPNRYLEGYWGQGTQVTVSS,high polyreactivity
13,QEQLQESGSGLVQAGGSLRLSCAASGNIFHDWVMGWYRQAPGKERELVAAISPGAITYYADSVKGRFTISRDNAKNTVYLQTNSLKPEDTAVYYCAAYYIVEYLHGYWGQGTRVTVSS,low polyreactivity
14,QVQLVESGGGLVQAGGSLRLSCAASGLILNYYTMGWYRQAPGKERELVATISSSTGSTYYADSVKGRFTISRDNAKNTVYLQMNSLKPEDTAVYYCAADHWSYWQIYDFWGQGTQVTVSS,low polyreactivity
15,QVQLVESGGRLVQAGGSLRLSCAPSGRTFGVYAMGWYRQAPGKERELVAVISSSSGSTYYADSVKGRFTISRDNAKNTVYLQMNSLKPEDTAVYYCAADFFYESFRDDYWGQGTQVTVSS,low polyreactivity
16,QDQHVESGGGLVQAGGSLRLICAASGFTFSHYPMGSYRQAPGKERELVAAINWSGGSTDYADSVKGRFTLSRDNAMNTVYLQMNSLKPVDTAVYYCNTVSYAYWGYYYWGQGTQVTLSS,high polyreactivity
17,QVQLVESGGGIVQAGGSLRLSCAASGYIFQYYAMGWYRQAPGKERELVAAITGGGSTKYADSVKGRFTISRDNAKNTVYLQMNSLKPEDTAVYYCAASLWYRISKYDYWGQGTQVTVSS,high polyreactivity
18,QVQLVESGGGLVQAGGSLRLSCAASGSTFNKYTMGWYRQAPGKERELVAAISSIGGSTYYADSVKGRFTISRDNAKNTVYLQMNSLKPEDTAVYYCAAPYPIGHDWGQGTQVTVSS,low polyreactivity
19,QFQLVESGGGLVQAGGSLRLSCAASGFTFDFYAMGWYRQAPGKERELVAAISKNDGTTYYADSVKGRFTISRDNAKNTVYLQMNSLKQEDTAVYYCAAPNWRDYYSSGQGTQVTVSS,low polyreactivity
20,QVQLVESGGGLVQAGGSLRLSCAASGSTDRYYVMGWYRQAPGKERDLVAGISYRGGTTYYADSVKGRFTISRDNAKNTVYLQMNRLKPEDTAVYYCNAETAAAQASYDRLYVLLDYWGQGTQVTVSS,low polyreactivity
